From patent US6884600
Blank lines part the entries; values can stand above or below the substance they belong to.

Assays:
[1] = biological target: PP1GL, glycogen-associated form of PP1 in rat hepatic glycogen-protein particles (rat); experiment: cell-based or functional assay
[2] = biological target: myosin from chicken gizzard, dephosphorylated form (chicken) (UniProt P10587); experiment: co-sedimentation with M21 in excess (10-50 µM M21, 1 µM myosin), Coomassie-stained gel
[3] = biological target: myosin from chicken gizzard, dephosphorylated form (chicken) (UniProt P10587); experiment: co-sedimentation, 30 nM PP1M with 1 µM myosin

Sequence of myosin from chicken gizzard, dephosphorylated form (chicken) (P10587 2-1979, chain 1 of 3): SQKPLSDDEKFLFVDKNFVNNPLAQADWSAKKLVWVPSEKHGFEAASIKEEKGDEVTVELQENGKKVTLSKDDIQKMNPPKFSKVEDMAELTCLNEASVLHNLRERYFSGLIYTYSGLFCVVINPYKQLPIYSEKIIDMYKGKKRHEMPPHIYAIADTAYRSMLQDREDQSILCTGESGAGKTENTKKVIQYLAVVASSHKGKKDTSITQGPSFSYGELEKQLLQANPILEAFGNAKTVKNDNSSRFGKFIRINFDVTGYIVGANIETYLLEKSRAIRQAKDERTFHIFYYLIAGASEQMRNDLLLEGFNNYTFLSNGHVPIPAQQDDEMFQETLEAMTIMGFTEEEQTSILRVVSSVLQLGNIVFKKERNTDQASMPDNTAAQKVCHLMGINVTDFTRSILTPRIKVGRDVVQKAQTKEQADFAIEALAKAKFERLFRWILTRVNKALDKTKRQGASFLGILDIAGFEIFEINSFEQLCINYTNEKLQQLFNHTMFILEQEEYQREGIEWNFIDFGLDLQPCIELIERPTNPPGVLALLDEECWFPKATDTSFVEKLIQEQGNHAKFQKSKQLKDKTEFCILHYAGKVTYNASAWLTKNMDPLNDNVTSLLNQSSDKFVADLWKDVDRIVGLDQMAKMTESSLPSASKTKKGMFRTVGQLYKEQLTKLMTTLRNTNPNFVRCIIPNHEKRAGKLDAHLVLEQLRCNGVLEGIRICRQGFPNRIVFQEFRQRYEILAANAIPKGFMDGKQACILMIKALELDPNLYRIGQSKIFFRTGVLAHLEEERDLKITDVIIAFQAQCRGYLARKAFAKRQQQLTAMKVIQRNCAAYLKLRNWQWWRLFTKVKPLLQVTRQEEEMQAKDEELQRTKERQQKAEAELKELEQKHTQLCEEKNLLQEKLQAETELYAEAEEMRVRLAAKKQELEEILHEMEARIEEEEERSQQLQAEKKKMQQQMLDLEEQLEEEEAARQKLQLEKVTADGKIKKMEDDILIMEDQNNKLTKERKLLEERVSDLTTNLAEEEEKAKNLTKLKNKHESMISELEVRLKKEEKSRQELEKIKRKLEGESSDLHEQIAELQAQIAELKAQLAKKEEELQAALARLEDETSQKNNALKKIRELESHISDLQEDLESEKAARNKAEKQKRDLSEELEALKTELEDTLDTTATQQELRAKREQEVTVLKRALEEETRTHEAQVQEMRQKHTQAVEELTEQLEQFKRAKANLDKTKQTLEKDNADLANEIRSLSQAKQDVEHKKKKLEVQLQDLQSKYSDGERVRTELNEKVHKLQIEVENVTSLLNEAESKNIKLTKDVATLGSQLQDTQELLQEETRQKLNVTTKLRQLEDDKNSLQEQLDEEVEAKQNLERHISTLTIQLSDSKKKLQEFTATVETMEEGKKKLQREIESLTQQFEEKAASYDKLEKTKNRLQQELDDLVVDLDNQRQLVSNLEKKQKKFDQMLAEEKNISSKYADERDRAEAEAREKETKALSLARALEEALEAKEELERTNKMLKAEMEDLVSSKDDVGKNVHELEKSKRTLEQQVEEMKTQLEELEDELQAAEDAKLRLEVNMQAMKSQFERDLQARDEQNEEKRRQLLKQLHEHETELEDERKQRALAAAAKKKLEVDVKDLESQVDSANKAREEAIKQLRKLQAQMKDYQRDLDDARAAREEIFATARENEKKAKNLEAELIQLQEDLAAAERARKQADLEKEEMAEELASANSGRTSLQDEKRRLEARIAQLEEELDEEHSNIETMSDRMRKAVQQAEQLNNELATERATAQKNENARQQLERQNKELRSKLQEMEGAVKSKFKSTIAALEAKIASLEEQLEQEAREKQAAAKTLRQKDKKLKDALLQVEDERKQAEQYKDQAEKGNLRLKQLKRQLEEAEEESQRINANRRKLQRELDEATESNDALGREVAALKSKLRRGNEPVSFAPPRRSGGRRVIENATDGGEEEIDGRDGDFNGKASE
Sequence of myosin from chicken gizzard, dephosphorylated form (chicken) (P02612 2-172, chain 2 of 3, further chain): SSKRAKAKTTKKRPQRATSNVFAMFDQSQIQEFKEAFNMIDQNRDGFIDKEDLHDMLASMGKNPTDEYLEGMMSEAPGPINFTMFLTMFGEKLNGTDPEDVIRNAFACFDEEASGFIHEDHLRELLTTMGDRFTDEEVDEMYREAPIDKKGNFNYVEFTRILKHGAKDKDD
Sequence of myosin from chicken gizzard, dephosphorylated form (chicken) (P02607 2-151, chain 3 of 3, further chain): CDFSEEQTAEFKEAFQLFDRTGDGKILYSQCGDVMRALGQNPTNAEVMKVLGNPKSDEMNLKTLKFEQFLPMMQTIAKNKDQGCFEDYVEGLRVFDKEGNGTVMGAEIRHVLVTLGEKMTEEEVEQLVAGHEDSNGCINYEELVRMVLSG
Sequence of PP1M, myosin-associated form of PP1 from chicken gizzard (P62207 2-327): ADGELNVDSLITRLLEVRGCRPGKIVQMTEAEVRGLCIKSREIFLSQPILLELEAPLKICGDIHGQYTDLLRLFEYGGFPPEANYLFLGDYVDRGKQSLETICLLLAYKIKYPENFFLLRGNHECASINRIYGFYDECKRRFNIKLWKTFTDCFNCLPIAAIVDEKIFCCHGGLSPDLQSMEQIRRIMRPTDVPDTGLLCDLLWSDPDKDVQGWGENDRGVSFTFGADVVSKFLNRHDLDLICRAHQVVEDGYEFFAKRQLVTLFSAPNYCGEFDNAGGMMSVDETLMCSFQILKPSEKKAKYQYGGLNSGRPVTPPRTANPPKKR
Sequence of PP1M, myosin-associated form of PP1 from chicken gizzard (chain): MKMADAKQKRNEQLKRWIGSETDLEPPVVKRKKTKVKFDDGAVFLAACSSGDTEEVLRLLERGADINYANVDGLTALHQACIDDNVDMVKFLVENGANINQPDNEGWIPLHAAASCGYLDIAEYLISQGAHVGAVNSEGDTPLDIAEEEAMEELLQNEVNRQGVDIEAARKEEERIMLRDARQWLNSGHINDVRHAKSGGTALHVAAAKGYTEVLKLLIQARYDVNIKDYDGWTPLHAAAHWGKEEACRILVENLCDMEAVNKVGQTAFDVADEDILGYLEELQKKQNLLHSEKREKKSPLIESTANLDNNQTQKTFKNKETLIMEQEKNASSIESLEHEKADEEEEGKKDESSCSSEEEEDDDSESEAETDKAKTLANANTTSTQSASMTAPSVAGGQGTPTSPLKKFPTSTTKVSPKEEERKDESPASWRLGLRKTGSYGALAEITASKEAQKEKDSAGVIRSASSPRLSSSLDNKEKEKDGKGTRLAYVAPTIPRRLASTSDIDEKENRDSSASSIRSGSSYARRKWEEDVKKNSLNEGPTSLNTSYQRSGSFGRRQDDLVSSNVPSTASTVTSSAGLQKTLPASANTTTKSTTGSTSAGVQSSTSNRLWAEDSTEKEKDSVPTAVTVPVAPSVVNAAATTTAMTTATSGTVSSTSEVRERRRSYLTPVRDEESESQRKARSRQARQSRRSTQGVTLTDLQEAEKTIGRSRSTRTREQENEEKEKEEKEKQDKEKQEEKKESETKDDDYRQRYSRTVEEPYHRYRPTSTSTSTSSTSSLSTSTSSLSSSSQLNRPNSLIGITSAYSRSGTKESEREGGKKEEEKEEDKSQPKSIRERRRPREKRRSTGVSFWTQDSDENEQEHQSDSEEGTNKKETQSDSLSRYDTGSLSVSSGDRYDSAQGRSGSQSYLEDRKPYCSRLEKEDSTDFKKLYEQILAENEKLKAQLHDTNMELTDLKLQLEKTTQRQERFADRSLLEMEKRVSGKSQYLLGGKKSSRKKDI

effectiveness of disruption of the PP1-GL complex relative to wild type GM[63-75] [1]: 100 fold
Substance: GM[G63-N75] variant with Val 66 changed to Ala (peptide)

moles of M21 subunit bound to each myosin dimer (mol/mol myosin dimer) [2]: > 20
Substance: M21 subunit of chicken gizzard PP1M, full length (M1-K186)

percent of myosin P-light chain phosphatase recovered in the myosin pellet [3]: 85%
Substance: PP1M, myosin-associated form of PP1 from chicken gizzard (from UniProt P62207 2-327) (enzyme)
